Data published in US20200164083A1 (priority 2016, published 2020).
Like-named read-outs stand apart in the source and are kept apart here.

Tests used:
[1] = rat, in vivo, sc
Method: Each syringe contained 0.45 or 0.98 μmol peptide at 1.9 μmol peptide g^−1 slurry. The syringes were weighed prior to and after dosing to verify the mass delivered to each rat. Blood samples (300 μL) were drawn and the serum was frozen at −80° C. until analysis.
Frozen serum samples were thawed on ice and diluted between 5 and 20-fold in the provided rat serum. […] Data replicates were averaged and fitted to appropriate pharmacokinetic models.

[2] = pH 9.4
[3] = tested on: Zucker diabetic fatty rats; assay: Chronic glucoregulatory effects in diabetic ZDF rats; assay type: in vivo; settings: single s.c. dose
Method: A total of 55 male Zucker diabetic fatty rats (ZDF-Lepr^fa/Crl) 6 weeks of age, and 180-200 gram (Charles River, USA) were single-housed and blood glucose and body weight were monitored bi-weekly for 2-4 weeks. Based on morning-fed blood glucose, outliers were excluded and 40 diabetic rats (average weight 340 g, blood glucose 9.7 to 22.5 mM, average 16.2 mM) were stratified into 4 groups of n=10. […]
Body-weights were monitored daily from day −3 throughout the study. Food and water intake were monitored on day −3 and daily for the first 11 days after the first dose then bi-weekly for the rest of the study period. Blood sampling was performed for pharmacokinetic studies 2 days after the first dose and then once weekly. HbA1c was measured day −3, and days 26 and 55 before OGTT, and the gastric emptying test was performed on day 26. For the OGTT, rats were semi-fasted overnight (60%) then PO glucose (2 g/kg in 10 mL) was administered at t=0. Blood glucose and insulin were measured at t=−60, −15, 0, 15, 30, 60 and 120 minutes after the glucose challenge. Gastric emptying was measured by administration of acetaminophen (100 mg/kg) with the OGTT on day 26, and blood levels were measured at 15, 30, 60 and 120 min.

[4] = mouse, in vivo
Method: B. The small amounts of microspheres needed in the mouse required a diluent to allow accurate dosing. […] This diluent served to keep the microspheres in a homogeneous suspension prior to and during administration and allowed dosing of convenient volumes. […] Syringes (0.5 mL U-100 insulin syringe with fixed 29 g×½″ needle, BD) were filled with the suspended microspheres under aseptic conditions. The needle assembly of each syringe was purged of air and weighed prior to and following dosing to determine the average mass of slurry delivered to each mouse.
Serum was prepared and frozen at −80° C. until analysis.
(§1) Serum samples were treated with 3 vol of ACN and centrifuged. The supernatant was dried, reconstituted and applied to a HPLC MS/MS system. The sample was eluted by a water/ACN gradient containing 0.1% formic acid. […] HPLC-MS/MS analyses were carried out on a Sciex 5500 QTrap® mass spectrometer coupled with a Shimadzu HPLC system. The Shimadzu HPLC system consisted of two LC-30AD HPLC pumps and a SIL-30AC autosampler with a 100-μL loop installed. […] The mass spectrometer was operated in positive electrospray ionization mode and the resolution setting used was the unit for both Q1 and Q3. […] Peak-area integrations were performed using Analyst software (version 1.5.2) from Sciex.
(§2) C vs. t curves (text) were analyzed using GraphPad Prism by non-linear regression of eq X (text) with weighting by 1/SD2; since ka>>k1 we modeled the single exponential phase of the terminal half-life using data points later than the first few days.

[5] = rat, in vivo
Method: The content of each syringe was administered SC in the flank of six cannulated male Sprague Dawley rats (average weight 270 g).
as §1, §2

## hydrogel-[N28Q]exenatide microspheres R^1=CN: PEG hydrogel microspheres coupled with Nα-[1-cyano-7-azido-2-heptyloxycarbonyl]-[N28Q]exenatide
[1]
  t1/2: 31.7 days
[2]
  half-life of first-order release of free peptide: 0.688 days
[3]
  control of blood glucose: effective at controlling blood glucose for at least one month
[4]
  AUCinf: 800 ± 323 nM-hr
  Cmax: 0.81 nM
  Dose adjusted: Cmax, 0: 0.18 nM/(μmol/kg)
  k × 10^4 ± SE: 9.5 ± 1.0 h^−1
  t1/2: 30.4 days
[5]
  AUCinf: 448 ± 91 nM-hr
  Cmax: 0.36 nM
  Dose adjusted: Cmax, 0: 0.17 nM/(μmol/kg)
  k × 10^4 ± SE: 7.8 ± 1.3 h^−1
  t1/2: 36.8 days
[5]; sc
  t1/2,β: 36.7 days
